These results are taken from patent US20160068605A1 (Janssen / Centocor, published 2016).

Some results are limits rather than exact numbers.

A word on the koff: it is the first-order rate constant of dissociation. The kon is a measure of how fast the partners come together.

The target of assay [1] is T1, human CD123 SP1 ECD displayed on pDisplay-transfected cells (human, UniProt P26951 20-305).
T1 construct: ECD anchored on the surface of stably transfected HEK293 cells by the PDGFR transmembrane domain; also called hCD123 SP1 cells; hCD123 cells
T1 sequence: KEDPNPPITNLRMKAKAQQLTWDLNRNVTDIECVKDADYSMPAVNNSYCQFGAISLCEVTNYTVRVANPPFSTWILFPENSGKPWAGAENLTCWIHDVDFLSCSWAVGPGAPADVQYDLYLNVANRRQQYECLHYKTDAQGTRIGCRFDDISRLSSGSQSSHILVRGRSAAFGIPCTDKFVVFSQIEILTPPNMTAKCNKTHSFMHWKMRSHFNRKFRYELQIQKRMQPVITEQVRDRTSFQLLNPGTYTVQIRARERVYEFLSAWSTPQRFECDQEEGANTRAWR
Kind of assay: MSD-CAT, hCD123 cells, assay-1; apparent KD (bivalent).

In assay [2] the target is T2, cyno CD123 ECD displayed on pDisplay-transfected cells (cynomolgus monkey).
T2 construct: ECD anchored on the surface of stably transfected HEK293 cells; also called cynoCD123 SP1 cells; cynoCD123 cells
T2 chain: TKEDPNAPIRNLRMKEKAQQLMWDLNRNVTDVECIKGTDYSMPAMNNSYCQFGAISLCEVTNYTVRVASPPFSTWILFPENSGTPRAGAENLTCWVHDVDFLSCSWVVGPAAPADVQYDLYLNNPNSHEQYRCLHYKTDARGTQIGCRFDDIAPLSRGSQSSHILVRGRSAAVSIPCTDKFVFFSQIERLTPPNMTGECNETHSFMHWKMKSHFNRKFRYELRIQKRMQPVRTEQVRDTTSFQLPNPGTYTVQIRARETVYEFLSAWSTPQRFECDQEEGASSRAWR
The assay is described as follows: MSD-CAT on cyno pDisplay cells. Here is the method: Cell lines used were human pDisplay CD and cyno pDisplay CD123SP1. […] These samples were prepared in DMEM Glutamax medium containing 0.05% Azide, 1% BSA, 3 mM EDTA. The receptor numbers of (3.15-4.18)×10⁶ hCD123/cell and (4.78-9.24) 10⁶ cyCD123/cell were converted to M receptor concentration in the mixture on the basis of the volume of reaction, the cell density (cells/L) and the Avogadro's number. […] After equilibration the plate was centrifuged for 5 min ˜1000 rpm and free anti-CD3 detected on the supernatant. […] The assay buffer was removed without washing and 50 μL/well of 0.7 μg/mL of biotinylated antigen in assay buffer were added to MSD plates and incubated overnight (˜16 hr at 4° C.). After overnight incubation, the plates were blocked by adding 150 μL/well of assay buffer without removing coating antigen, incubated for ˜1 hr at ambient temperature and washed 5 times with wash buffer (assay buffer without BSA). 50 μL/well of the supernantants from samples plate were transferred to antigen-coated plates, incubated for 60 min, and then washed three times with wash Buffer. […] After 1 hr the plates were washed and 150 μL of MSD Read Buffer (prepared by diluting 1:4 of stock into d. H₂O) were added per well. The plates were read immediately on the MSD Sector Imager 6000 Reader for luminescence levels.

Assay [3] addresses T1, human CD123 SP1 ECD displayed on …. The assay is described as follows: MSD-CAT, hCD123 cells, assay-2; apparent KD (bivalent).
The target of assay [4] is T3, Recombinant human CD123 SP1 ECD-His tag protein (human, UniProt P26951 20-305).
T3 construct: bought from R&D Systems (#301-R3/CF); biotinylated for some assays; also called rhCD123 SP1; huCD123 ECD SP1
T3 sequence: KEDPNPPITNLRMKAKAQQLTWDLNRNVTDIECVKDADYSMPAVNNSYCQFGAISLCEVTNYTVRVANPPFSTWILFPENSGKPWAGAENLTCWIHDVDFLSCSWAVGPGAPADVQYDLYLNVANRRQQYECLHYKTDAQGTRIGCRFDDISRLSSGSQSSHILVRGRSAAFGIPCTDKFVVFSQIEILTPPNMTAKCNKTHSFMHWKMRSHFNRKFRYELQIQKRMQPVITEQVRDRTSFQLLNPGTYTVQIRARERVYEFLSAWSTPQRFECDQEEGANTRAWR
The assay is described as follows: SPR ProteOn, captured mAb.

For assay [5], the target named is T4, Recombinant human CD123 SP2 ECD protein (human, UniProt P26951 101-303).
T4 construct: also called rhCD123 SP2; CD123 ECD SP2
T4 sequence: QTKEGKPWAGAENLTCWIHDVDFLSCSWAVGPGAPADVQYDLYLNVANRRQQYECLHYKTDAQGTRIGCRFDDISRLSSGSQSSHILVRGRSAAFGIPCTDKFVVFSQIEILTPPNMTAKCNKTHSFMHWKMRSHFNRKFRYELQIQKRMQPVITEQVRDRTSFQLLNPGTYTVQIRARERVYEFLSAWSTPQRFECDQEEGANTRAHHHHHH
The assay is described as follows: SPR ProteOn, captured mAb.

B1: I3RB18 (antibody, IgG1, V domains shown)
VH: EVQLVQSGAEVKKPGESLKISCKGSGYSFTSYWISWVRQMPGKGLEWMGIIDPSDSDTRYSPSFQGQVTISADKSISTAYLQWSSLKASDTAMYYCARGDGSTDLDYWGQGTLVTVSS
VL: EIVLTQSPGTLSLSPGERATLSCRASQSVSSSYLAWYQQKPGQAPRLLIYGASSRATGIPDRFSGSGSGTDFTLTISRLEPEDFAVYYCQQDYGFPWTFGQGTKVEIK
notes: IgG1; also called 13RB18; mAb I3RB18
Take B1: the Kd in assay [1] is 0.055 nM; in assay [2], > 12 nM; in assay [3] it was 0.343 nM; in assay [4], 0.57 nM; in assay [5], 0.363 nM. The koff in assay [4] came out at 0.00082 s⁻¹; in assay [5], 0.000978 s⁻¹. The kon in assay [4] was determined as 1.44e+06 M⁻¹ s⁻¹; in assay [5], 2.69e+06 M⁻¹ s⁻¹.
